Fold lower Gluc-PCA signal than the Zip-Zip dimer data for one substance are collected here from article PMC10158025.

In the assay the target is CtBP2-Gluc-N / CtBP2-Gluc-C (CtBP-Gluc-PCA reporter) (human) (UniProt P56545). Kind of assay: split reporter (BiFC, NanoBiT); Gluc-PCA in 293 cells co-transfected with the Gluc-N and Gluc-C fusions, luminance read; MTOB treatment gave a dose-dependent reduction of the signal.

“CtBP2-Gluc-N / CtBP2-Gluc-C (CtBP-Gluc-PCA reporter), P56545 1-445 (natural protein; other documents disagree on this pair)”: the fold lower Gluc-PCA signal than the Zip-Zip dimer worked out at 10 fold.
